Blank lines part the entries; values can stand above or below the binder they belong to.
Columns and labels:
CD40/Fc fusion protein [1] = target: T1, CD40/Fc fusion protein (human, UniProt P25942 21-193); experiment: biosensor assay substantially as Example 22 (captured CD40/Fc); yeast-expressed protein
T1 construct: extracellular domain; also called C40/Fc; s CD40/Fc; not shown: remainder of the human IgG1 Fc region, joined at a Bgl II site near the beginning of the hinge
Experimental: The biosensor chips were coated with goat anti-human IgG_1 Fc, which was used to bind CD40/Fc (prepared as described in Example 1) to the chip. The different constructs of CD40-L were then added at increasing concentrations; the chip was regenerated between the different constructs by the addition of sodium hydroxide. Two separate experiments were performed. In the first, the binding of a dimeric human CD40-L (Example 14), trimeric human CD40-L (Example 15), dimeric murine CD40-L (prepared substantially as described in Example 14 for human CD40-L/FC) and trimeric murine CD40-L (prepared substantially as described for the human CD40-L in Example 15) were compared. In the second experiment, the binding of trimeric human CD40-L was compared to the binding of two different preparations of monomeric human CD40-L prepared as described in Example 18. The resultant data were analyzed to determine the affinity and association rate constants of the different CD40-L constructs. Results are shown in Table 12 below, and in FIGS. 19A–19B
[a]Mutations are given as the residue present in the native peptide, the residue number, and the residue present in the mutein. Residue numbers for zipper domain mutations are relative to SEQ ID NO: 17. [b]Residue numbers for mutations in the CD40L domain are relative to SEQ ID NO: 12. […]

CD40/Fc fusion protein [2] = target: T1, CD40/Fc fusion protein; experiment: biosensor (BIAcore), CD40/Fc captured by goat anti-human IgG1 Fc; experiment 1
Experimental: (§1) This example illustrates the binding affinities of several different CD40-L constructs. Affinity experiments were conducted by biospecific interaction analysis (BIA) using a biosensor, an instrument that combines a biological recognition mechanism with a sensing device or transducer. An exemplary biosensor is BIAcore™, from Pharmacia Biosensor AB (Uppsala, Sweden; see Fägerstam L. G., *Techniques in Protein Chemistry II*, ed. J. J. Villafranca, Acad. Press, NY, 1991). BIAcore™ uses the optical phenomenon surface plasmon resonance (Kretschmann and Raether, *Z. Naturforschung, Teil. A* 23:2135, 1968) to monitor the interaction of two biological molecules. Molecule pairs having affinity constants in the range 10^5 to 10^10 M^-1, and association rate constants in the range of 10^3 to 10^6 M^-1s^-1, are suitable for characterization with BLAcore™.
(§2) The biosensor chips were coated with goat anti-human IgG_1 Fc, which was used to bind CD40/Fc (prepared as described in Example 1) to the chip. The different constructs of CD40-L were then added at increasing concentrations; the chip was regenerated between the different constructs by the addition of sodium hydroxide. Two separate experiments were performed. […] The resultant data were analyzed to determine the affinity and association rate constants of the different CD40-L constructs. […]

CD40/Fc fusion protein [3] = target: T1, CD40/Fc fusion protein; experiment: biosensor (BIAcore), CD40/Fc captured by goat anti-human IgG1 Fc; experiment 1; K1 (site 1)
Experimental: as §1, §2

CD40/Fc fusion protein [4] = target: T1, CD40/Fc fusion protein; experiment: biosensor (BIAcore), CD40/Fc captured by goat anti-human IgG1 Fc; experiment 1; K2 (site 2)
Experimental: as §1, §2

T1 sequence (P25942 other isoform, or with tags, fused parts or gaps limits assumed): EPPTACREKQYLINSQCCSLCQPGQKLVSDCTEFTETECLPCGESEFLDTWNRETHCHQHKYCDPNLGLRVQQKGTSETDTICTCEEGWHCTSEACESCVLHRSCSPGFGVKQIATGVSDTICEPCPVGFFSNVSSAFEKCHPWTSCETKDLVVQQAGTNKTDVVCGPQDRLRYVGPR

Ka (CD40/Fc fusion protein [1]): 7.7e+07 M⁻¹
B1: wild type CD40 ligand/zipper domain fusion protein (WT) expressed in yeast (ligand)
chain: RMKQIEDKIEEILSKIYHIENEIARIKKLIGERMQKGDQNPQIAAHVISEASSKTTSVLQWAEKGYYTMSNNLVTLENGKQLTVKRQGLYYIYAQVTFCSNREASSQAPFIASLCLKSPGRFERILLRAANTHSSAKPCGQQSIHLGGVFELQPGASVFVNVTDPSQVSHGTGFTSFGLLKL

Site 1 (mol/mol CD40/Fc) (CD40/Fc fusion protein [2]): 0.02 mol/mol CD40/Fc
Site 2 (mol/mol CD40/Fc) (CD40/Fc fusion protein [2]): 0.44 mol/mol CD40/Fc
Ka (CD40/Fc fusion protein [3]): 6e+10 M⁻¹
Ka (CD40/Fc fusion protein [4]): 1.6e+08 M⁻¹
B2: trimeric murine CD40-L (ligand)
chain: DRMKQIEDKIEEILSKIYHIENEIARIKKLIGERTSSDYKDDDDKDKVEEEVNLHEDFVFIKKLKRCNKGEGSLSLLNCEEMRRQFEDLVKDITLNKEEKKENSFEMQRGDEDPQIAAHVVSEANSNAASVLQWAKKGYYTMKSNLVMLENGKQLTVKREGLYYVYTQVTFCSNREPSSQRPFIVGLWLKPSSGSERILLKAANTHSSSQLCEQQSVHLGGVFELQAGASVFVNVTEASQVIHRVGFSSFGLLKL
notes: The leader is not part of the secreted protein; Made in CHO cells; also called Murine Trimer; muCD40LT

Source: patent US6410711
